According to US20230250154A1 (CYTONICS, published 2023):

B1: Variant A2M, bait region SEQ ID NO 128 (other)
chain: SVSGKPQYMVLVPSLLHTETTEKGCVLLSYLNETVTVSASLESVRGNRSLFTDLEAENDVLHCVAFAVPKSSSNEEVMFLTVQVKGPTQEFKKRTTVMVKNEDSLVFVQTDKSIYKPGQTVKFRVVSMDENFHPLNELIPLVYIQDPKGNRIAQWQSFQLEGGLKQFSFPLSSEPFQGSYKVVVQKKSGGRTEHPFTVEEFVLPKFEVQVTVPKIITILEEEMNVSVCGLYTYGKPVPGHVTVSICRKYSDASDCHGEDSQAFCEKFSGQLNSHGCFYQQVKTKVFQLKRKEYEMKLHTEAQIQEEGTVVELTGRQSSEITRTITKLSFVKVDSHFRQGIPFFGQVRLVDGKGVPIPNKVIFIRGNEANYYSNATTDEHGLVQFSINTTNVMGTSLTVRVNYKDRSPCYGYQWVSEEHEEAHHTAYLVFSPSKSFVHLEPMSHELPCGHTQTVQAHYILNGGTLLGLKKLSFYYLIMAKGGIVRTGTHGLLVKQEDMKGHFSISIPVKSDIAPVARLLIYAVLPTGDVIGDSAKYDVENCLANKVDLSFSPSQSLPASHAHLRVTAAPQSVCALRAVDQSVLLMKPDAELSASSVYNLLPEKDLTGFPGPLNDQDDEDCINRHNVYINGITYTPVSSTNEKDMYSFLEDMGLKAFTNSKIRKPKMCPQLEQYEMHGPSELEGRGSEAIPMSIPTKEEEGLGSIPENFFGVVEEPHTKLRKYFPETWIWDLVVVNSAGVAEVGVTVPDTITEWKAGAFCLSEDAGLGISSTASLRAFQPFFVELTMPYSVIRGEAFTLKATVLNYLPKCIRVSVQLEASPAFLAVPVEKEQAPHCICANGRQTVSWAVTPKSLGNVNFTVSAEALESQELCGTEVPSVPEHGRKDTVIKPLLVEPEGLEKETTFNSLLCPSGGEVSEELSLKLPPNVVEESARASVSVLGDILGSAMQNTQNLLQMPYGCGEQNMVLFAPNIYVLDYLNETQQLTPEIKSKAIGYLNTGYQRQLNYKHYDGSYSTFGERYGRNQGNTWLTAFVLKTFAQARAYIFIDEAHITQALIWLSQRQKDNGCFRSSGSLLNNAIKGGVEDEVTLSAYITIALLEIPLTVTHPVVRNALFCLESAWKTAQEGDHGSHVYTKALLAYAFALAGNQDKRKEVLKSLNEEAVKKDNSVHWERPQKPKAPVGHFYEPQAPSAEVEMTSYVLLAYLTAQPAPTSEDLTSATNIVKWITKQQNAQGGFSSTQDTVVALHALSKYGAATFTRTGKAAQVTIQSSGTFSSKFQVDNNNRLLLQQVSLPELPGEYSMKVTGEGCVYLQTSLKYNILPEKEEFPFALGVQTLPQTCDEPKAHTSFQISLSVSYTGSRSASNMAIVDVKMVSGFIPLKPTVKMLERSNHVSRTEVSSNHVLIYLDKVSNQTLSLFFTVLQDVPVRDLKPAIVKVYDYYETDEFAIAEYNAPCSKDLGNADYKDDDDKGASHHHHHH
B2: Variant A2M, bait region SEQ ID NO 134 (other)
chain: SVSGKPQYMVLVPSLLHTETTEKGCVLLSYLNETVTVSASLESVRGNRSLFTDLEAENDVLHCVAFAVPKSSSNEEVMFLTVQVKGPTQEFKKRTTVMVKNEDSLVFVQTDKSIYKPGQTVKFRVVSMDENFHPLNELIPLVYIQDPKGNRIAQWQSFQLEGGLKQFSFPLSSEPFQGSYKVVVQKKSGGRTEHPFTVEEFVLPKFEVQVTVPKIITILEEEMNVSVCGLYTYGKPVPGHVTVSICRKYSDASDCHGEDSQAFCEKFSGQLNSHGCFYQQVKTKVFQLKRKEYEMKLHTEAQIQEEGTVVELTGRQSSEITRTITKLSFVKVDSHFRQGIPFFGQVRLVDGKGVPIPNKVIFIRGNEANYYSNATTDEHGLVQFSINTTNVMGTSLTVRVNYKDRSPCYGYQWVSEEHEEAHHTAYLVFSPSKSFVHLEPMSHELPCGHTQTVQAHYILNGGTLLGLKKLSFYYLIMAKGGIVRTGTHGLLVKQEDMKGHFSISIPVKSDIAPVARLLIYAVLPTGDVIGDSAKYDVENCLANKVDLSFSPSQSLPASHAHLRVTAAPQSVCALRAVDQSVLLMKPDAELSASSVYNLLPEKDLTGFPGPLNDQDDEDCINRHNVYINGITYTPVSSTNEKDMYSFLEDMGLKAFTNSKIRKPKMCPQLEQYEMHGPSELEGRGSIPENFFGVKEEEGLGSSEDLVVQIVEEPHTKLRKYFPETWIWDLVVVNSAGVAEVGVTVPDTITEWKAGAFCLSEDAGLGISSTASLRAFQPFFVELTMPYSVIRGEAFTLKATVLNYLPKCIRVSVQLEASPAFLAVPVEKEQAPHCICANGRQTVSWAVTPKSLGNVNFTVSAEALESQELCGTEVPSVPEHGRKDTVIKPLLVEPEGLEKETTFNSLLCPSGGEVSEELSLKLPPNVVEESARASVSVLGDILGSAMQNTQNLLQMPYGCGEQNMVLFAPNIYVLDYLNETQQLTPEIKSKAIGYLNTGYQRQLNYKHYDGSYSTFGERYGRNQGNTWLTAFVLKTFAQARAYIFIDEAHITQALIWLSQRQKDNGCFRSSGSLLNNAIKGGVEDEVTLSAYITIALLEIPLTVTHPVVRNALFCLESAWKTAQEGDHGSHVYTKALLAYAFALAGNQDKRKEVLKSLNEEAVKKDNSVHWERPQKPKAPVGHFYEPQAPSAEVEMTSYVLLAYLTAQPAPTSEDLTSATNIVKWITKQQNAQGGFSSTQDTVVALHALSKYGAATFTRTGKAAQVTIQSSGTFSSKFQVDNNNRLLLQQVSLPELPGEYSMKVTGEGCVYLQTSLKYNILPEKEEFPFALGVQTLPQTCDEPKAHTSFQISLSVSYTGSRSASNMAIVDVKMVSGFIPLKPTVKMLERSNHVSRTEVSSNHVLIYLDKVSNQTLSLFFTVLQDVPVRDLKPAIVKVYDYYETDEFAIAEYNAPCSKDLGNADYKDDDDKGASHHHHHH

What was measured:
Experiment in all cases: cell-based or functional assay
MMP2 = target: T1, MMP2 (human, UniProt P08253 110-660, limits assumed)
T1 sequence (looked up): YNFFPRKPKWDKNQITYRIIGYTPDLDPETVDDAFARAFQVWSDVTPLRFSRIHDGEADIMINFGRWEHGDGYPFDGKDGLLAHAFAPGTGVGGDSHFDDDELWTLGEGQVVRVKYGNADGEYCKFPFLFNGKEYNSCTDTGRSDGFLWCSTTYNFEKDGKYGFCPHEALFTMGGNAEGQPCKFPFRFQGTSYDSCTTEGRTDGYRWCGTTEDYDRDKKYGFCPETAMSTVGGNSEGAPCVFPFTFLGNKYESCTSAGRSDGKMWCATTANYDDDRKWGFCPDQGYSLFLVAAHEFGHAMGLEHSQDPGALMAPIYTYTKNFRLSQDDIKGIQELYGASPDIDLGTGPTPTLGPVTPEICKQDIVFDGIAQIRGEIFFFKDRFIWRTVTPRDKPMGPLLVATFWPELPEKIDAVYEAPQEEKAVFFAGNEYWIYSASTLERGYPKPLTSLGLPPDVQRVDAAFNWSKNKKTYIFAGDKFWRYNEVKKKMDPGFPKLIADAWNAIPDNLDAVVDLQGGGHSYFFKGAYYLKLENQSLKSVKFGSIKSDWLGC

MMP1 = target: T2, MMP1 (human, UniProt P03956 100-469, limits assumed)
T2 sequence (looked up): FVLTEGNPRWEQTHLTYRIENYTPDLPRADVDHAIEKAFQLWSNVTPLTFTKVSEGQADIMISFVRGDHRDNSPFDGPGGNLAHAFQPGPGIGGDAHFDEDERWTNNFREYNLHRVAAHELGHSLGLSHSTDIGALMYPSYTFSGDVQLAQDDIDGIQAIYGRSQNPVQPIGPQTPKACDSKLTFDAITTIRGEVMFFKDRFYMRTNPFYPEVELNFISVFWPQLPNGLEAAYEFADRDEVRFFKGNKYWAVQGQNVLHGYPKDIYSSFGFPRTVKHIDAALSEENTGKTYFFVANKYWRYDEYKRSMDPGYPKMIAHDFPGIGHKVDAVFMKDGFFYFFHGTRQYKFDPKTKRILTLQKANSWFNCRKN

Cathepsin G = target: T3, Cathepsin G (UniProt P08311 21-244)
T3 sequence (looked up): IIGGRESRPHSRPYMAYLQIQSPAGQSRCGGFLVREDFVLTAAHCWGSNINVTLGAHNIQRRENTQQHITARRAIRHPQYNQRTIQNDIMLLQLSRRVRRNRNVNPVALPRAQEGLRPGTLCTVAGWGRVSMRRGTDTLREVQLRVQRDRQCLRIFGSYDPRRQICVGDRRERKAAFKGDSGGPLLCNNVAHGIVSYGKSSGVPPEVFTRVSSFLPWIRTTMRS

Elastase = target: Elastase
MMP8 = MMP8 (human, UniProt P22894 101-467, limits assumed)
Chain of MMP8 (P22894 101-467 limits assumed): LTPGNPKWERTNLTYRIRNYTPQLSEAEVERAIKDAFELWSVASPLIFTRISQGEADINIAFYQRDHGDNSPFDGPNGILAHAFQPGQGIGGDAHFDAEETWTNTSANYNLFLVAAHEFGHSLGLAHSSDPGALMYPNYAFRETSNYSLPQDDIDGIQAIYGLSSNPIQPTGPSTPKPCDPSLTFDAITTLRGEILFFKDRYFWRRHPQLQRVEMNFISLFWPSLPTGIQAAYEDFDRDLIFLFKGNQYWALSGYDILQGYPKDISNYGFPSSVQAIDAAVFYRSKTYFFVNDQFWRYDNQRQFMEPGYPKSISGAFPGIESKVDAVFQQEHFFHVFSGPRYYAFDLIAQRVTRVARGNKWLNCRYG

Protease Inhibition (% of WT) (MMP2) | Protease Inhibition (% of WT) (MMP1) | Protease Inhibition (% of WT) (Cathepsin G) | Protease Inhibition (% of WT) (Elastase) | Protease Inhibition (% of WT) (MMP8) | Binder
20 % of WT | 400 % of WT | 225 % of WT | 100 % of WT | – | B1
– | 200 % of WT | 250 % of WT | 300 % of WT | 200 % of WT | B2
